Usually stoichiometry N stands for a count of units in the complex or per binding partner.

The series concerns the molecule itself. Kind of series: SEC.

B1: methanethiol oxidase (MTO) of Hyphomicrobium sp. VS (enzyme)
chain: DETCNSPFTTALITGQEQYLHVWTLGMPGVGDESDKLVTISVDPKSDKYGKVINTLSVGGRGEAHHTGFTDDRRYLWAGRLDDNKIFIFDLIDPANPKLIKTITDFADRTGYVGPHTFYALPGRMLIQALSNTKTHDGQTGLAVYSNAGELVSLHPMPVTDGGDGYGYDIGINPAKNVLLTSSFTGWNNYMMDLGKMVKDPEAMKRFGNTMAIWDLKSMKAEKILNVPGAPLEIRWSLKPEHNWAYTATALTSKLWLIKQDDKGEWIAKETGTIGDPSKIPLPVDISITADAKGLWVNTFLDGTTRFYDISEPEHPKEVFSKKMGNQVNMVSQSYDGKRVYFTTSLIANWDKKGAENDQWLKAYDWDGKELVEKFTVDFNELKLGRAHHMKFSSKTNAAELGTNQSFPTRQ
Turning to B1, the “stoichiometry N” value came to 4.
